Laboratory results reported in US20230002480A1.

Columns and labels:
Experiment in all cases: cell-based or functional assay
[1] = biological target: HIV-1 Env of pseudovirus CNE19 (HIV-1)
[2] = biological target: HIV-1 Env of pseudovirus 263-8 (HIV-1)
[3] = biological target: HIV-1 Env of pseudovirus CNE53 (HIV-1)
[4] = biological target: HIV-1 Env of pseudovirus ZM53M.PB12 (HIV-1)
[5] = biological target: HIV-1 Env of pseudovirus QH0692.42 (HIV-1)
[6] = biological target: HIV-1 Env of pseudovirus ZM135M.PL10a (HIV-1)
[7] = biological target: HIV-1 Env of pseudovirus Ce1086_B2 (HIV-1)
[8] = biological target: HIV-1 Env of pseudovirus 9004SS_A3_4 (HIV-1)
[9] = biological target: HIV-1 Env of pseudovirus 1056_10_TA11_1826 (HIV-1)
[10] = biological target: HIV-1 Env of pseudovirus SC05_8C11_2344 (HIV-1)
[11] = biological target: HIV-1 Env of pseudovirus 249M B10 (HIV-1)
[12] = biological target: HIV-1 Env of pseudovirus T250-4 (HIV-1)
[13] = biological target: HIV-1 Env of pseudovirus Q23.17 (HIV-1)
[14] = biological target: HIV-1 Env of pseudovirus HIV-0013095-2.11 (HIV-1)
[15] = biological target: HIV-1 Env of pseudovirus HIV-16055-2.3 (HIV-1)
[16] = biological target: HIV-1 Env of pseudovirus 1006_11_C3_1601 (HIV-1)
[17] = biological target: HIV-1 Env of pseudovirus ZM197M.PB7 (HIV-1)
[18] = biological target: HIV-1 Env of pseudovirus TRJO4551.58 (HIV-1)
[19] = biological target: HIV-1 Env of pseudovirus PVO.4 (HIV-1)
[20] = biological target: HIV-1 Env of pseudovirus 1012_11_TC21_3257 (HIV-1)
[21] = biological target: HIV-1 Env of pseudovirus 191084 B7-19 (HIV-1)
[22] = biological target: HIV-1 Env of pseudovirus 928-28 (HIV-1)
[23] = biological target: HIV-1 Env of pseudovirus ZM233M.PB6 (HIV-1)

Question: How did the IC50, titer in TZM.bl cells [1] turn out when 10E8 (antibody) was run?
Answer: The IC50, titer in TZM.bl cells was 0.666 µg/mL.

Question: And the IC80, titer in TZM.bl cells [1]?
Answer: The IC80, titer in TZM.bl cells was 6.49 µg/mL.

Question: And the IC50, titer in TZM.bl cells [2]?
Answer: The IC50, titer in TZM.bl cells was 0.196 µg/mL.

Question: What about the IC80, titer in TZM.bl cells [2] of the same substance?
Answer: Its IC80, titer in TZM.bl cells is 1.73 µg/mL.

Question: What about the IC50, titer in TZM.bl cells [3] of the same substance?
Answer: The IC50, titer in TZM.bl cells was 0.326 µg/mL.

Question: And the IC80, titer in TZM.bl cells [3]?
Answer: Its IC80, titer in TZM.bl cells is 1.92 µg/mL.

Question: And the IC50, titer in TZM.bl cells [4]?
Answer: Its IC50, titer in TZM.bl cells is 3.98 µg/mL.

Question: And the IC80, titer in TZM.bl cells [4]?
Answer: Its IC80, titer in TZM.bl cells is > 10 µg/mL.

Question: And the IC50, titer in TZM.bl cells [5]?
Answer: Its IC50, titer in TZM.bl cells is 0.442 µg/mL.

Question: What about the IC80, titer in TZM.bl cells [5] of the same substance?
Answer: The IC80, titer in TZM.bl cells was 4.05 µg/mL.

Question: And the IC50, titer in TZM.bl cells [6]?
Answer: Its IC50, titer in TZM.bl cells is 0.171 µg/mL.

Question: What about the IC80, titer in TZM.bl cells [6] of the same substance?
Answer: Its IC80, titer in TZM.bl cells is 1.19 µg/mL.

Question: What about the IC50, titer in TZM.bl cells [7] of the same substance?
Answer: The IC50, titer in TZM.bl cells was 1.16 µg/mL.

Question: And the IC80, titer in TZM.bl cells [7]?
Answer: Its IC80, titer in TZM.bl cells is 6.93 µg/mL.

Question: And the IC50, titer in TZM.bl cells [8]?
Answer: Its IC50, titer in TZM.bl cells is 1.16 µg/mL.

Question: What about the IC80, titer in TZM.bl cells [8] of the same substance?
Answer: Its IC80, titer in TZM.bl cells is 6.76 µg/mL.

Question: What about the IC50, titer in TZM.bl cells [9] of the same substance?
Answer: Its IC50, titer in TZM.bl cells is 0.134 µg/mL.

Question: And the IC80, titer in TZM.bl cells [9]?
Answer: Its IC80, titer in TZM.bl cells is 1.03 µg/mL.

Question: What about the IC50, titer in TZM.bl cells [10] of the same substance?
Answer: Its IC50, titer in TZM.bl cells is 0.665 µg/mL.

Question: What about the IC80, titer in TZM.bl cells [10] of the same substance?
Answer: The IC80, titer in TZM.bl cells was 2.74 µg/mL.

Question: What about the IC50, titer in TZM.bl cells [11] of the same substance?
Answer: Its IC50, titer in TZM.bl cells is 1.27 µg/mL.

Question: What about the IC80, titer in TZM.bl cells [11] of the same substance?
Answer: Its IC80, titer in TZM.bl cells is 9.05 µg/mL.

Question: And the IC50, titer in TZM.bl cells [12]?
Answer: The IC50, titer in TZM.bl cells was 1.35 µg/mL.

Question: And the IC80, titer in TZM.bl cells [12]?
Answer: The IC80, titer in TZM.bl cells was 8.13 µg/mL.

Question: And the IC50, titer in TZM.bl cells [13]?
Answer: The IC50, titer in TZM.bl cells was 1.64 µg/mL.

Question: What about the IC80, titer in TZM.bl cells [13] of the same substance?
Answer: The IC80, titer in TZM.bl cells was 7.04 µg/mL.

Question: And the IC50, titer in TZM.bl cells [14]?
Answer: The IC50, titer in TZM.bl cells was 0.031 µg/mL.

Question: And the IC80, titer in TZM.bl cells [14]?
Answer: Its IC80, titer in TZM.bl cells is 0.213 µg/mL.

Question: And the IC50, titer in TZM.bl cells [15]?
Answer: Its IC50, titer in TZM.bl cells is 0.722 µg/mL.

Question: And the IC80, titer in TZM.bl cells [15]?
Answer: The IC80, titer in TZM.bl cells was 6.5 µg/mL.

Question: What about the IC50, titer in TZM.bl cells [16] of the same substance?
Answer: Its IC50, titer in TZM.bl cells is 0.172 µg/mL.

Question: And the IC80, titer in TZM.bl cells [16]?
Answer: The IC80, titer in TZM.bl cells was 3 µg/mL.

Question: What about the IC50, titer in TZM.bl cells [17] of the same substance?
Answer: The IC50, titer in TZM.bl cells was 0.148 µg/mL.

Question: And the IC80, titer in TZM.bl cells [17]?
Answer: The IC80, titer in TZM.bl cells was 0.802 µg/mL.

Question: What about the IC50, titer in TZM.bl cells [18] of the same substance?
Answer: Its IC50, titer in TZM.bl cells is 0.475 µg/mL.

Question: What about the IC80, titer in TZM.bl cells [18] of the same substance?
Answer: The IC80, titer in TZM.bl cells was 4.78 µg/mL.

Question: What about the IC50, titer in TZM.bl cells [19] of the same substance?
Answer: The IC50, titer in TZM.bl cells was 0.747 µg/mL.

Question: And the IC80, titer in TZM.bl cells [19]?
Answer: Its IC80, titer in TZM.bl cells is > 10 µg/mL.

Question: What about the IC50, titer in TZM.bl cells [20] of the same substance?
Answer: The IC50, titer in TZM.bl cells was 0.244 µg/mL.

Question: What about the IC80, titer in TZM.bl cells [20] of the same substance?
Answer: Its IC80, titer in TZM.bl cells is 4.21 µg/mL.

Question: What about the IC50, titer in TZM.bl cells [21] of the same substance?
Answer: Its IC50, titer in TZM.bl cells is 5.16 µg/mL.

Question: And the IC80, titer in TZM.bl cells [21]?
Answer: Its IC80, titer in TZM.bl cells is > 10 µg/mL.

Question: And the IC50, titer in TZM.bl cells [22]?
Answer: The IC50, titer in TZM.bl cells was 0.384 µg/mL.

Question: What about the IC80, titer in TZM.bl cells [22] of the same substance?
Answer: Its IC80, titer in TZM.bl cells is 1.96 µg/mL.

Question: What about the IC50, titer in TZM.bl cells [23] of the same substance?
Answer: The IC50, titer in TZM.bl cells was 0.442 µg/mL.

Question: What about the IC80, titer in TZM.bl cells [23] of the same substance?
Answer: Its IC80, titer in TZM.bl cells is 2.39 µg/mL.

Question: What does the source list for N49P9 (antibody)?
Answer: IC50 [1]: 0.031 µg/mL; IC80 [1]: 0.136 µg/mL; MPI [1]: 100; IC50 [3]: 0.123 µg/mL; IC80 [3]: 0.462 µg/mL; MPI [3]: 99; IC50 [4]: 0.362 µg/mL; IC80 [4]: 1.14 µg/mL; MPI [4]: 100; IC50 [5]: 0.352 µg/mL; IC80 [5]: 1.21 µg/mL; MPI [5]: 100; IC50 [6]: 0.224 µg/mL; IC80 [6]: 0.863 µg/mL; MPI [6]: 97; IC50 [7]: 0.341 µg/mL; IC80 [7]: 1.69 µg/mL; MPI [7]: 97; IC50 [9]: 0.386 µg/mL; IC80 [9]: 1.32 µg/mL; MPI [9]: 100; IC50 [10]: 0.473 µg/mL; IC80 [10]: 1.61 µg/mL; MPI [10]: 100; IC50 [11]: 0.203 µg/mL; IC80 [11]: 1.41 µg/mL; MPI [11]: 97; IC50 [13]: 0.032 µg/mL; IC80 [13]: 0.091 µg/mL; MPI [13]: 100; IC50 [14]: 0.179 µg/mL; IC80 [14]: 0.635 µg/mL; MPI [14]: 100; IC50 [15]: 0.077 µg/mL; IC80 [15]: 0.274 µg/mL; MPI [15]: 100; IC50 [16]: 0.076 µg/mL; IC80 [16]: 0.231 µg/mL; MPI [16]: 100; IC50 [17]: 0.083 µg/mL; IC80 [17]: 0.339 µg/mL; MPI [17]: 100; IC50 [18]: 0.036 µg/mL; IC80 [18]: 0.128 µg/mL; MPI [18]: 100; IC50 [19]: 0.179 µg/mL; IC80 [19]: 0.628 µg/mL; MPI [19]: 100; IC50 [20]: 0.194 µg/mL; IC80 [20]: 0.591 µg/mL; MPI [20]: 100; IC50 [23]: > 50 µg/mL; IC80 [23]: > 50 µg/mL; MPI [23]: 48
